In series [1] the target is RsmN (Pseudomonas aeruginosa PAO1) (UniProt Q02EI1). Nature of the series: ITC. For orientation: ITC needs no label: the signal is the heat of the interaction.
For series [2], the target named is RsmN R62A (Pseudomonas aeruginosa PAO1) (UniProt Q02EI1). Nature of the series: ITC. The conditions noted are these: ITC: 125 uM RNA titrated into protein, 25 mM potassium phosphate pH 7, 50 mM NaCl, 298 K; SEC: 50 uM protein, 100 uM RNA, same buffer.
Series [3] addresses RsmN (His6-Thb-RsmN) (Pseudomonas aeruginosa PAO1). Nature of the series: SEC + native MS; gel filtration analysis and ESI-MS of the purified His-tagged RsmN construct; conditions in the Supplemental Information. For orientation: SEC sorts molecules by how far they enter the pores of the column.
A further series concerns the target RsmA (UniProt O69078 1-61). Kind of series: ITC; 1 hairpin per monomer; ITC: 125 uM RNA titrated into protein, 25 mM potassium phosphate pH 7, 50 mM NaCl, 298 K; SEC: 50 uM protein, 100 uM RNA, same buffer. The conditions noted are these: protein: recombinant, tags: N-terminal His6-thrombin site (LVPRGS), chain copies: 2, 6-nt loop AAGGAU, G5-C12 closing pair.

Where two headings read alike, the source gives them in different places.

As a reminder, the Kd is the constant that tells how readily two partners part at equilibrium. CCCCGAAGGAUCGGGG [RsmZ-2 hairpin] registered a Kd in series [1] (ITC: 125 uM RNA titrated into protein, 25 mM potassium phosphate pH 7, 50 mM NaCl, 298 K, SEC: 50 uM protein, 100 uM RNA, same buffer) of 276 nM. The binding signal (fold lower affinity than wild type) in series [2] was above 1000.

In the case of GCGCAGGAAGCGC [RsmY-1 hairpin], the equilibrium dissociation constant (Kd) in series [1] amounted to 526 nM.

In general, stoichiometry N refers to a count of units in the complex or per binding partner. With RsmN (His6-Thb-RsmN) (natural protein), the stoichiometry N in series [3] is 2.

In series [1], “UAAAAGGAAUA [PA1003/pqsR ribosome binding site]” yielded a dissociation constant (Kd) of 704 nM.

B1: RsmZ-2 hairpin (structured_RNA)
RNA: CCCCGAAGGAUCGGGG
As for B1, the dissociation constant (Kd) in the series with RsmA was found to be 264 ± 43 nM.

The values are drawn from PMC3791407, “Structural Rearrangement in an RsmA/CsrA Ortholog of Pseudomonas aeruginosa Creates a Dimeric RNA-Binding Protein, RsmN”.
